From the Immune Epitope Database (IEDB)

Tests used:
HLA-B*18:01 [1] = assay: IEDB peptide-MHC binding, purified MHC/direct/fluorescence; filed as Kd, often an IC50 or EC50 that approximates it; ≥ and ≤ were set here for values at or beyond the usual limits of such assays; details: source organism: Mycobacterium ulcerans
HLA-B*15:01 = assay: IEDB peptide-MHC binding, purified MHC/competitive/radioactivity; filed as Kd, often an IC50 or EC50 that approximates it; ≥ and ≤ were set here for values at or beyond the usual limits of such assays; details: source organism: Vaccinia virus WR
HLA-B*15:03 = assay: as above; details: source organism: Vaccinia virus WR
HLA-A*32:01 = assay: as above; details: source organism: Vaccinia virus WR
HLA-A*30:01 = assay: as above; details: source organism: Vaccinia virus WR
HLA-B*08:01 = assay: as above; details: source organism: Vaccinia virus WR
HLA-A*02:01 [2] = assay: as above
HLA-A*02:17 = assay: as above
HLA-B*57:01 = assay: IEDB peptide-MHC binding, purified MHC/competitive/fluorescence; filed as Kd, often an IC50 or EC50 that approximates it; ≥ and ≤ were set here for values at or beyond the usual limits of such assays; details: source organism: Lechiguanas virus
HLA-B*51:01 = assay: as above; details: source organism: Lechiguanas virus
HLA-B*46:01 = assay: as above; details: source organism: Lechiguanas virus
HLA-B*18:01 [3] = assay: as above; details: source organism: Lechiguanas virus
HLA-A*26:01 [4] = assay: as above; details: source organism: Lechiguanas virus
HLA-B*39:01 = assay: as above; details: source organism: Lechiguanas virus
HLA-B*27:03 = assay: as above; details: source organism: Lechiguanas virus
HLA-A*02:01 [5] = assay: IEDB peptide-MHC binding, purified MHC/direct/fluorescence; filed as Kd, often an IC50 or EC50 that approximates it; ≥ and ≤ were set here for values at or beyond the usual limits of such assays; details: source organism: Orthohantavirus andesense
HLA-A*03:01 = assay: as above; details: source organism: Lechiguanas virus
HLA-A*26:01 [6] = assay: IEDB peptide-MHC binding, purified MHC/competitive/radioactivity; filed as Kd, often an IC50 or EC50 that approximates it; ≥ and ≤ were set here for values at or beyond the usual limits of such assays; details: source organism: Dengue virus 4 Philippines/H241/1956
HLA-A*68:02 = assay: as above
HLA-A*02:03 = assay: as above
HLA-A*02:06 = assay: as above; details: source organism: Trypanosoma cruzi
HLA-A*02:02 = assay: as above; details: source organism: Trypanosoma cruzi
[7] = source organism: Dengue virus 4 Philippines/H241/1956
[8] = source organism: Dengue virus 1 Singapore/S275/1990
[9] = source organism: Dengue virus 2 Jamaica/1409/1983
[10] = source organism: Trypanosoma cruzi

Question: With AEREPFQYF as the sequence, how does the Kd (HLA-B*18:01 [1]) read?
Answer: 208 nM

Question: Which results are given for AINNRICVM?
Answer: Kd (HLA-B*15:01): 50.6 nM; Kd (HLA-B*15:03): 65.1 nM; Kd (HLA-A*32:01): 1240 nM; Kd (HLA-A*30:01): 135 nM; Kd (HLA-B*08:01): 423 nM

Question: Which results are given for ALLAGFMAYM?
Answer: Kd (HLA-A*02:01 [2]; [7]): 5.69 nM; Kd (HLA-A*02:17; [7]): 34 nM

Question: Which results are given for ALLELFNAF?
Answer: Kd (HLA-B*15:01): 2.48 nM; Kd (HLA-B*15:03): 0.241 nM; Kd (HLA-A*32:01): 166 nM; Kd (HLA-A*30:01): 357 nM; Kd (HLA-B*08:01): 2690 nM

Question: Which results are given for AMPKTIYEL?
Answer: Kd (HLA-B*57:01): ≥ 20000 nM; Kd (HLA-B*51:01): ≥ 20000 nM; Kd (HLA-B*46:01): ≥ 20000 nM; Kd (HLA-B*18:01 [3]): ≥ 20000 nM; Kd (HLA-A*26:01 [4]): ≥ 20000 nM; Kd (HLA-B*39:01): ≥ 20000 nM; Kd (HLA-B*27:03): ≥ 20000 nM; Kd (HLA-A*02:01 [5]): 37.3 nM; Kd (HLA-A*03:01): ≥ 20000 nM

Question: With ETALMVIGMA as the sequence, how does the Kd (HLA-A*26:01 [6]) read?
Answer: 390 nM

Question: And the Kd (HLA-A*68:02; [7])?
Answer: 5.23 nM

Question: How did the Kd (HLA-A*02:01 [2]; [8]) turn out when FLAIPPTAGI was run?
Answer: 11.6 nM

Question: And the Kd (HLA-A*02:17; [8])?
Answer: 4.2 nM

Question: And the Kd (HLA-A*02:03; source organism: Dengue virus 1 Brazil/97-11/1997)?
Answer: 12.8 nM

Question: What does the source list for FLEEMLRTRV?
Answer: Kd (HLA-A*02:01 [2]; [9]): 27.2 nM; Kd (HLA-A*02:17; [9]): 137 nM

Question: For FLVDGLSSI, which Kd (HLA-B*15:03) is on record?
Answer: 3160 nM

Question: Which Kd (HLA-B*15:03) does the source give for FQYVSYSNF here?
Answer: 0.261 nM

Question: What about the Kd (HLA-A*30:01) of the same sequence?
Answer: 12500 nM

Question: Which results are given for FTNNKFTLS?
Answer: Kd (HLA-A*02:01 [2]; [10]): ≥ 50000 nM; Kd (HLA-A*02:06): 328 nM; Kd (HLA-A*02:02): 10100 nM; Kd (HLA-A*68:02; [10]): 496 nM; Kd (HLA-A*02:03; [10]): 460 nM
